The chains are these.
B1: Full length sFlt (soluble fms-like tyrosine kinase 1, sFlt-1), Scios Inc. Lot# 9225-89 (receptor)
chain: SKLKDPELSLKGTQHIMQAGQTLHLQCRGEAAHKWSLPEMVSKESERLSITKSACGRNGKQFCSTLTLNTAQANHTGFYSCKYLAVPTSKKKETESAIYIFISDTGRPFVEMYSEIPEIIHMTEGRELVIPCRVTSPNITVTLKKFPLDTLIPDGKRIIWDSRKGFIISNATYKEIGLLTCEATVNGHLYKTNYLTHRQTNTIIDVQISTPRPVKLLRGHTLVLNCTATTPLNTRVQMTWSYPDEKNKRASVRRRIDQSNSHANIFYSVLTIDKMQNKDKGLYTCRVRSGPSFKSVNTSVHIYDKAFITVKHRKQQVLETVAGKRSYRLSMKVKAFPSPEVVWLKDGLPATEKSARYLTRGYSLIIKDVTEEDAGNYTILLSIKQSNVFKNLTATLIVNVKPQIYEKAVSSFPDPALYPLGSRQILTCTAYGIPQPTIKWFWHPCNHNHSEARCDFCSNNEESFILDADSNMGNRIESITQRMAIIEGKNKMASTLVVADSRISGIYICIASNKVGTVGRNISFYITDVPNGFHVNLEKMPTEGEDLKLSCTVNKFLYRDVTWILLRTVNNRTMHYSISKQKMAITKEHSITLNLTIMNVSLQDSGTYACRARNVYTGEEILQKKEITIRGEHCNKKAVFSRISKFKSTRNDCTTQSNVKH
notes: also called recombinant sFlt
B2: P126(GAA): PlGF mutant #2 (ligand)
chain: MRGSAVPPQQWALSAGNGSSEVEVVPFQEVWGRSYCRALERLVDVVSEYPSEVEHMFSPSCVSLLRCTGCGGAANLHCVPVETANVTMQLLKIRSGDRPSYVELTFSQHVRCECRPLREKMKPERCGDAVGPGQIVGGVYLL

Experiment [1] has as its target T1, P126(DE): recombinant PlGF wild type (human).
T1 construct: also called unaltered PlGF
T1 chain: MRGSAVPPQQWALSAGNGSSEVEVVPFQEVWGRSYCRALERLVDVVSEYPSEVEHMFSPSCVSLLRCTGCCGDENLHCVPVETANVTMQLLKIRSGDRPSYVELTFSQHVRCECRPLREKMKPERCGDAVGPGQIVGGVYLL
Description: ELISA, coated PlGF, sFlt at 200 ng/mL, detected with RD-1 + RD-2 anti-sFlt. On the technique in general: An ELISA detects its analyte on a solid surface through an enzyme-linked reagent.

In experiment [2] the target is B2. Described as above.
In experiment [3] the target is T2, P126(AA): PlGF mutant #1 (human).
T2 chain: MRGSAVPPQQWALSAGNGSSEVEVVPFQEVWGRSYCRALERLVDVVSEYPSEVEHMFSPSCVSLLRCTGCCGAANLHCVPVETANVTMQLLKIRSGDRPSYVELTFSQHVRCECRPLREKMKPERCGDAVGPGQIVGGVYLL
Described as above.

Experiment [4] concerns the target T1, P126(DE): recombinant PlGF wild type. Briefly: ELISA, coated PlGF, sFlt at 1800 ng/mL, detected with RD-1 + RD-2 anti-sFlt.
The target in experiment [5] is B2. The description is as above.
Experiment [6] addresses T2, P126(AA): PlGF mutant #1. Described as above.
The target of experiment [7] is T1, P126(DE): recombinant PlGF wild type. Briefly: ELISA, coated PlGF, sFlt at 600 ng/mL, detected with RD-1 + RD-2 anti-sFlt.
Experiment [8] has as its target B2. Described as above.
Experiment [9] deals with T2, P126(AA): PlGF mutant #1. The description is as above.
The target of experiment [10] is T1, P126(DE): recombinant PlGF wild type. Briefly: ELISA, coated PlGF, sFlt at 66.67 ng/mL, detected with RD-1 + RD-2 anti-sFlt.
Experiment [11] addresses B2. Described as above.
For experiment [12], the target named is T2, P126(AA): PlGF mutant #1. The experiment is described as above.
Experiment [13] addresses B1. Description: ELISA, sFlt coated 0.5 ug/mL, PlGF in solution, detected with Rat-4. As for the experimental part: High-binding microtiter plate was coated with recombinant sFlt at 0.5 ug/mL and blocked with BSA/PBS
Standard ELISA procedure consists of 1st plate incubation with diluted P126(DE) or P126(AA) or P126(GAA) in casein/PBS at various concentration, 2nd plate incubation with monoclonal anti-PlGF Rat-4 solution at 0.1 ug/mL, 3rd plate incubation with HRP conjugated donkey anti-Rat IgG at 1:4K dilution in casein/PBS and 4th plate incubation with 100 uL OPD substrate development for 25 C/30 min. 1st, 2nd and 3rd plate incubation step is at 37 C/15-20 min/shake; 6 times plate washing between each step. 25 uL stop solution after 4th incubation and record OD at 492 nm.

This note sets out measurements from US20090176264A1 (ORTHO CLINICAL DIAGNOSTICS, published 2009).

As for B1, the “OD at 492 nm” value was 0.833 OD in experiment [1]; 0.095 OD in [2]; 0.115 OD with P126(AA): PlGF mutant #1 [3]; over 3 OD in [4]; 0.15 OD in [5]; 0.21 OD in the experiment with P126(AA): PlGF mutant #1 [6]. In addition, the “OD at 492 nm” value came out at 1.83 OD in experiment [7]; 0.101 OD in experiment [8]; 0.182 OD with P126(AA): PlGF mutant #1 [9]; 0.347 OD in experiment [10]; 0.088 OD in [11]; 0.143 OD with P126(AA): PlGF mutant #1 [12].

As to B2, the binding result in [13] is “no binding (tested: 1000 ng/mL)”.
